Assay [1] addresses Factor VIII:C Mr 80 K polypeptide (FVIII-LC) encoded by pSVF8-80 (human) (UniProt P00451).
Assay [2] has the same target. This is another data set of the same source.
For assay [3] the target is unchanged. The source holds these as a separate data set.
The target is the same in assay [4]. This is another data set of the same source.
Assay [5] shares this target. The source holds these as a separate data set.
The target is the same in assay [6]. The source holds these as a separate data set.
Assay [7] deals with T1, Factor VIII:C 80 K light chain encoded by pSVF8-80KG (human, UniProt P00451).
T1 chain: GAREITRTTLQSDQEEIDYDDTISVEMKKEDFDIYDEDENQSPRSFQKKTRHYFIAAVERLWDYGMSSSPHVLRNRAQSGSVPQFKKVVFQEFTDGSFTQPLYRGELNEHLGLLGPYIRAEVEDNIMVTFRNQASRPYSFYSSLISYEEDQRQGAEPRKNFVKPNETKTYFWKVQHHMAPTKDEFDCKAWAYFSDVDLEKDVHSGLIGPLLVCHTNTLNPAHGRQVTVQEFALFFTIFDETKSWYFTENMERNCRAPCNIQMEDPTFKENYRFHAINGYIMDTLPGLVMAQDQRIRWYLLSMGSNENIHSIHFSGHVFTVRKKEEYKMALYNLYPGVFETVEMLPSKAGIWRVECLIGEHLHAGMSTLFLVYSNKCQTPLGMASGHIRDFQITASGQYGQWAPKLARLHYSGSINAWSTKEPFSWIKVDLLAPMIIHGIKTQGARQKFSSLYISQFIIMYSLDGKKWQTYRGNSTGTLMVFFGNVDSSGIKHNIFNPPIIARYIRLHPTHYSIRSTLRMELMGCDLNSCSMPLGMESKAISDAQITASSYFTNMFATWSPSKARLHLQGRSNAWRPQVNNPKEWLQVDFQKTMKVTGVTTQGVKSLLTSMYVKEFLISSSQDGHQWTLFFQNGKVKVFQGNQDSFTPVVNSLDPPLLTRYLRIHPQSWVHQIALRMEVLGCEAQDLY
As to the kind of experiment: cell-based or functional assay.

Assay [8] has as its target T2, Factor VIII:C 80 K light chain encoded by pSVF8-80S (human, UniProt P00451).
T2 chain: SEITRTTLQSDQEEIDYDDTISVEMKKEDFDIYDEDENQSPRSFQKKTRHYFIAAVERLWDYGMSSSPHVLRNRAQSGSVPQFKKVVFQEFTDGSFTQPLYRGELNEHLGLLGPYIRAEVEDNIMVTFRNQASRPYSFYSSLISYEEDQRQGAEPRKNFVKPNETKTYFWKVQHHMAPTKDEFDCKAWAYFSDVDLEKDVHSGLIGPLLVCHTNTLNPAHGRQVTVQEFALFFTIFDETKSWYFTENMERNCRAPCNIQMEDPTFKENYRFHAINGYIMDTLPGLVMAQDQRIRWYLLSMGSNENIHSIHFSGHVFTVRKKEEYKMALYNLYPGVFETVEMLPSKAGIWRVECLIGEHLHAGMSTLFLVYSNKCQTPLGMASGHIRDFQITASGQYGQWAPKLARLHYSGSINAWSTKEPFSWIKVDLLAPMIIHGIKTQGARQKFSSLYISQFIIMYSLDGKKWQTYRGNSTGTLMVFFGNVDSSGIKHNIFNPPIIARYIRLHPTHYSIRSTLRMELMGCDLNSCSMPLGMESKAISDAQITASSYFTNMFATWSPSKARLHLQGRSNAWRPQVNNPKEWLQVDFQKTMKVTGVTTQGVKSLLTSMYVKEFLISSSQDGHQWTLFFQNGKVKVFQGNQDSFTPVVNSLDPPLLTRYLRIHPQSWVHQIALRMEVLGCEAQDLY
As to the kind of experiment: cell-based or functional assay.

Assay [9] deals with T3, Factor VIII:C 80 K light chain encoded by pSVF8-80A (human, UniProt P00451).
T3 chain: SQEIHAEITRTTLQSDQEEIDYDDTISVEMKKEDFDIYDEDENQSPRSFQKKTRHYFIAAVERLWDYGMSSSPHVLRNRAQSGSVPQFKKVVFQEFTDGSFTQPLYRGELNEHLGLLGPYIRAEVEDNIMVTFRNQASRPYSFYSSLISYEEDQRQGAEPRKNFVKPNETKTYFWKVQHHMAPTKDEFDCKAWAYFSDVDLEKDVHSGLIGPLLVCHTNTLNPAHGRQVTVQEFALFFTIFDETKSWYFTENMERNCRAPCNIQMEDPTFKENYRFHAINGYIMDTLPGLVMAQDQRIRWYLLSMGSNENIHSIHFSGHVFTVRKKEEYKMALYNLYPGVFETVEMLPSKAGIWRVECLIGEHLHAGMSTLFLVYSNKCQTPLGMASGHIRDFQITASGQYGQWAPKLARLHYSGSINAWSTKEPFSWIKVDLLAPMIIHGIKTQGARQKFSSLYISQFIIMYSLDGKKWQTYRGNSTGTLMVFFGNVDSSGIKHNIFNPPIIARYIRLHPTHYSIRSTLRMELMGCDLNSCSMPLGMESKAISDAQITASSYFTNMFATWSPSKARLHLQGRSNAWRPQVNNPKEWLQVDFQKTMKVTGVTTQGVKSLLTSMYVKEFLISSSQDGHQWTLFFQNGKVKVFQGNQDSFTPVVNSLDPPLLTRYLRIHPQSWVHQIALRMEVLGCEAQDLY
As to the kind of experiment: cell-based or functional assay.

Assay [10] deals with Factor VIII:C light chain encoded by pSVF8-80AT (alpha1-antitrypsin signal peptide) (human, UniProt P00451). The assay can be described thus: cell-based or functional assay.

Regarding “1323 amino acid Factor VIII:C heavy chain encoded by pSVF8-160 (from UniProt P00451)”, the ratio of RIA to COATEST activity in assay [1] was found to be 1.8.

For “1416 amino acid Factor VIII:C heavy chain encoded by pSVF8-170 (from UniProt P00451)”, the ratio of RIA to COATEST activity in assay [1] came out at 1.8.

In assay [2], “Factor VIII:C 92 K heavy chain encoded by pCMVF8-92/6x (from UniProt P00451)” returned a COA (COATEST) mU/mL, cotransfected COS7 cells of 87 mU/mL.

As to “Factor VIII:C 92 K heavy chain encoded by pSVF8-92C (from UniProt P00451)”, the mU COATEST/mL (stable CHO cell line 11-D6) in [3] worked out at 43 mU/mL. The COA (COATEST) mU/mL, cotransfected COS7 cells in assay [2] was found to be 46 mU/mL.

On to “Factor VIII:C Mr 92 K heavy chain encoded by pSVF8-92E (from UniProt P00451)”, for which, in assay [4], the COATEST (mU/mL) (stable CHO clone 10C2-D2, 0.05 uM methotrexate) came out at 496 mU/mL. In assay [5], the Factor VIII:C activity of medium of COS7 cells cotransfected with pSVF8-80 came out at 1.65 fold. The ratio of RIA to COATEST activity in assay [1] came to 7.2.

In assay [6], “Factor VIII:C Mr 92 K polypeptide (FVIII-HC) encoded by pSVF8-92 (from UniProt P00451)” returned a COATEST Activity mU/mL (medium of cotransfected COS7 cells) of 20.4 mU/mL; a COATEST Activity mU/mL (supernatants of separate transfectants mixed) of less than 0.1 mU/mL; a Coagulation Activity mU/mL (one-stage assay, medium of cotransfected COS7 cells) of 22.5 mU/mL; a Coagulation Activity mU/mL (supernatants of separate transfectants mixed) of less than 0.9 mU/mL.

B1: purified recombinant FVIII:C heavy chains (from full-length human FVIII:C) (other)
chain: ATRRYYLGAVELSWDYMQSDLGELPVDARFPPRVPKSFPFNTSVVYKKTLFVEFTDHLFNIAKPRPPWMGLLGPTIQAEVYDTVVITLKNMASHPVSLHAVGVSYWKASEGAEYDDQTSQREKEDDKVFPGGSHTYVWQVLKENGPMASDPLCLTYSYLSHVDLVKDLNSGLIGALLVCREGSLAKEKTQTLHKFILLFAVFDEGKSWHSETKNSLMQDRDAASARAWPKMHTVNGYVNRSLPGLIGCHRKSVYWHVIGMGTTPEVHSIFLEGHTFLVRNHRQASLEISPITFLTAQTLLMDLGQFLLFCHISSHQHDGMEAYVKVDSCPEEPQLRMKNNEEAEDYDDDLTDSEMDVVRFDDDNSPSFIQIRSVAKKHPKTWVHYIAAEEEDWDYAPLVLAPDDRSYKSQYLNNGPQRIGRKYKKVRFMAYTDETFKTREAIQHESGILGPLLYGEVGDTLLIIFKNQASRPYNIYPHGITDVRPLYSRRLPKGVKHLKDFPILPGEIFKYKWTVTVEDGPTKSDPRCLTRYYSSFVNMERDLASGLIGPLLICYKESVDQRGNQIMSDKRNVILFSVFDENRSWYLTENIQRFLPNPAGVQLEDPEFQASNIMHSINGYVFDSLQLSVCLHEVAYWYILSIGAQTDFLSVFFSGYTFKHKMVYEDTLTLFPFSGETVFMSMENPGLWILGCHNSDFRNRGMTALLKVSSCDKNTGDYYEDSYEDISAYLLSKNNAIEPR
Take B1: the “Percent Control Activity (COATEST after in vitro combination of purified chains)” value was 233 percent of control activity in [7], 51 percent of control activity in assay [8], 92 percent of control activity in assay [9] and 86 percent of control activity in assay [10].

(Values after US20040137579A1, “Protein complexes having factor VIII:C activity and production thereof” (Chiron Corporation, published 2004).)
